Assay results: patent US20260176378A1 (DYAX, published 2026)

B1: M10-C11 (Fab, V domains shown)
VH: EVQLLESGGGLVQPGGSLRLSCAASGFTFSMYPMMWVRQAPGKGLEWVSYISPSGGMTDYADSVKGRFTISRDNSKNTLYLQMNSLRAEDMAVYYCARVAGSSDAFDIWGQGTMVTVSS
VL: DIQMTQSPSSLSASVGDRVTITCRASQSISIYLNWYQQKPEKAPKLLIFAASTLQSGVPSRFSGSGSGTDFTLTISNLQPEDFATYYCQQSHSIPPTFGLGTKVEVK
B2: M9-F09 (Fab, V domains shown)
VH: EVQLLESGGGLVQPGGSLRLSCAASGFTFSSYPMGWVRQAPGKGLEWVSRISSSGGMTIYADSVKGRFTISRDNSKNTLYLQMNSLRAEDTAVYYCARDDWNVGMDVWGQGTTVTVSS
VL: DIQMTQSPSSLSASVGDRVTITCRASQSISSYLNWYQQKPGKAPKLLIYAASSLQSGVPSKFSGSGSGTDYTLTISSLQPEDFATYYCQQTYTTPWTFGQGTKVEIK
B3: M11-E01 (Fab, V domains shown)
VH: EVQLLESGGGLVQPGGSLRLSCAASGFTFSTYEMYWVRQAPGKGLEWVSGIGSSGGMTMYADSVKGRFTISRDNSKNTLYLQMNSLRAEDTAMYYCAREQPGIAALQFWGQGTLVTVSS
VL: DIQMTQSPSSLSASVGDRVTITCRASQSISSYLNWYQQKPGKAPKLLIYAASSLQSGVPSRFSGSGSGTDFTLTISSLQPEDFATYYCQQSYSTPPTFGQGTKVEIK
B4: M10-D11 (Fab, V domains shown)
VH: EVQLLESGGGLVQPGGSLRLSCAASGFTFSAYPMNWVRQAPGKGLEWVSRISSSGGNTSYADSVKGRFTISRDNSKNTLYLQMNSLRAEDTAVYYCALGYLGYWGQGTLVTVSS
VL: not shown
B5: M11-E04 (Fab, V domains shown)
VH: EVQLLESGGGLVQPGGSLRLSCAASGFTFSMYHMNWVRQAPGKGLEWVSGIVSSGGVTFYADSVKGRFTISRDNSKNTLYLQMNSLRAEDTAVYYCARITTVTTGGAFDIWGQGTMVTVSS
VL: DIQMTQSPSSLSASVGDRVTITCRASQSISIYLTWYQHRPGKAPNLLIYGAATLQTGVPSRFSGSGSGTDFTLTIRGLQPEDFATYYCQQTFSLPRTFGQGTKLEIK
B6: M10-A12 (Fab, V domains shown)
VH: EVQLLESGGGLVQPGGSLRLSCAASGFTFSLYLMHWVRQAPGKGLEWVSSIYSSGGFTTYADSVKGRFTISRDNSKNTLYLQMNSLRAEDTAVYYCARDTDYGMDVWGQGTTVTVSS
VL: DIQMTQSPLSLSAFVGDRVTITCRASRDISVYLNWYQLKSGKAPKLLIYGASSLQSGVPSRFSGSGSGTDFTLTITSLQPEDFATYYCQQSYSIPFTFGGGTKVETK
B7: M10-F09 (Fab, V domains shown)
VH: EVQLLESGGGLVQPGGSLRLSCAASGFTFSNYDMMWVRQAPGKGLEWVSYISPSGGFTRYADSVKGRFTISRDNSKNTLYLQMNSLRAEDTATYYCAKDIYYYNWGPSHYFDSWGQGTLVTVSS
VL: DIQMTQSPSSLSASVGDRVTITCRASQTIDDDLIWYQQKPGRAPKLLIYAASSLQSGVPSRFSGSGSGTDFTLTITSLQPEDFATYYCQQSYNIPRTFGQGTKLESK
B8: M9-A08 (Fab, V domains shown)
VH: EVQLLESGGGLVQPGGSLRLSCAASGFTFSAYEMWWVRQAPGKGLEWVSYIGSSGGSTSYADSVKGRFTISRDNSKNTLYLQMNSLRAEDTAVYYCTGGNSSSFDAFDIWGQGTMVTVSS
VL: DIQMTQSPSSLSASVGDRVTVTCRASQRISTYLNWYQQKPGKAPKLLISGASSLQSGVPSRFSGSGSGTDFTLTISSLQPDDFATYYCQQSYNTPRTFGQGTKVEIR
B9: M10-G09 (Fab, V domains shown)
VH: EVQLLESGGGLVQPGGSLRLSCAASGFTFSQYGMQWVRQAPGKGLEWVSSIRSSGGATRYADSVKGRFTISRDNSKNTLYLQMNSLRAEDTAVYYCARDGYYDSSGYPDYWGQGTLVTVSS
VL: DIQMTQSPSSLSASVGDSVTITCRASQSISGYINWYQQKAGKAPKLLIYAASSLQSGVPSRFSGSGSGTHFTLTISSLQPEDFATYYCQQYVSYPFTFGPGTKVDIK
B10: M10-E06 (Fab, V domains shown)
VH: EVQLLESGGGLVQPGGSLRLSCAASGFTFSLYRMFWVRQAPGKGLEWVSSIWSSGGPTMYADSVKGRFTISRDNSKNTLYLQMNSLRAEDTAVYYCAREYPSTYYFDYWGQGTLVTVSS
VL: DIQMTQSPSSLSASVGDRVTITCRASQSISTYLNWYQQKPGKAPKLLIYGASSLQSGVPSRFSGSGSGTDFTLTISSLQPEDFTIYYCQQSYSDPYTFGQGTKLDIK
B11: M11-E05 (Fab, V domains shown)
VH: EVQLLESGGGLVQPGGSLRLSCAASGFTFSWYTMGWVRQAPGKGLEWVSWIYFGGLTTYADSVKGRFTISRDNSKNTLYLQMNSLRAEDTAVYYCARLGGPLDAFDIWGQGTMVTVSS
VL: DIQMTQSPSSLSASVGDTVTITCRTSQTINNYLNWYQQRPGEAPKVLIYATHTLESGVPSRFSGSGSGTDFTLTIGSLQPEDFATYYCQQSFAFPYTFGQGTKVEIT
B12: M9-D08 (Fab, V domains shown)
VH: EVQLLESGGGLVQPGGSLRLSCAASGFTFSWYKMMWVRQAPGKGLEWVSSIYPSGGWTNYADSVKGRFTISRDNSKNTLYLQMNSLRAEDTAVYYCTRGSPWGDDAFDIWGQGTMVTVSS
VL: DIQMTQSPSSLSASVGDRVTLTCRASRTISFYLNWYQQKAGKAPELLIYGGSSLHSGVPSRFSGSGSGTDFSLTISNLQPEDIAVYYCQQSFSSPWTFGQGTKVEIK
B13: M10-A03 (Fab, V domains shown)
VH: EVQLLESGGGLVQPGGSLRLSCAASGFTFSPYPMQWVRQAPGKGLEWVSSISSSGGMTEYADSVKGRFTISRDNSKNTLYLQMNSLRAEDTAVYYCARDDYGGKGGAFDIWGQGTMVTVSS
VL: DIQMTQSPSSLSASVGDRVTITCRASQRISFYLNWFQQKPGKAPNLLIYGASSLQSGVPSRFSGSGSGTDFTLTISSLQPKDFGTYYCQQTFSTPNTFGQGTKLEIK
B14: M9-E04 (Fab, V domains shown)
VH: EVQLLESGGGLVQPGGSLRLSCAASGFTFSEYDMMWVRQAPGKGLEWVSSIGSSGGMTYYADSVKGRFTISRDNSKNTLYLQMNSLRAEDTAVYYCARDQVAAAAIDYWGQGTLVTVSS
VL: DIQMIQSPSSLSASVGDRVTITCRASQSISGYLNWYQQRSGKAPKLLIFAASNLQTGVPSRFSGSGSGTDFTLTINNLQPEDFATYYCQQSHTPPKTFGPGTKVDIK
B15: M9-H02 (Fab, V domains shown)
VH: EVQLLESGGGLVQPGGSLRLSCAASGFTFSAYMMIWVRQAPGKGLEWVSVIYPSGGVTMYADSVKGRFTISRDNSKNTLYLQMNSLRAEDTAVYYCARGTVGASDAFDIWGQGTMVTVSS
VL: DIQMTQSPSSLSASVGDRVIITCRASRSIATYLNWYQQKPGKAPNLLIFGASTLQSGVPSRFSGSGSGTDFTLTISDLQPEDFATYYCQQSFSDPYTFGQGTNLEMK
B16: M10-B09 (Fab, V domains shown)
VH: EVQLLESGGGLVQPGGSLRLSCAASGFTFSWYEMSWVRQAPGKGLEWVSRIWPSGGVTMYADSVKGRFTISRDNSKNTLYLQMNSLRAEDTAVYYCTRTSITTVGMDVWGQGTTVTVSS
VL: DIQMTQSPSSLSASVGDGVTITCRASQSISTYLNWYQQRPGKAPKLLIYGASSLQSGVPSRFSGSGSGTDFTLTISSLQREDFATYYCQQSFSTPWTFGQGTRVEIK
B17: M9-F10 (Fab, V domains shown)
VH: EVQLLESGGGLVQPGGSLRLSCAASGFTFSDYDMEWVRQAPGKGLEWVSSISPSGGSTIYADSVKGRFTISRDNSKNTLYLQMNSLRAEDTAVYYCARQGLLTAFDIWGQGTMVTVSS
VL: DIQMTQSPSSLSASVGDRVTITCRASQSINTYLNWYQQKPGKAPKVLIHAASTLESGVPSRFSGSGSGTDFTLTISSLQPEDFATYYCQQSYSTPYTFGQGTKLEVR
B18: M9-H04 (Fab, V domains shown)
VH: EVQLLESGGGLVQPGGSLRLSCAASGFTFSAYTMWWVRQAPGKGLEWVSSIWPSGGSTFYADSVKGRFTISRDNSKNTLYLQMNSLRAEDTAVYYCARTYDSSAGEVDYWGQGTLVTVSS
VL: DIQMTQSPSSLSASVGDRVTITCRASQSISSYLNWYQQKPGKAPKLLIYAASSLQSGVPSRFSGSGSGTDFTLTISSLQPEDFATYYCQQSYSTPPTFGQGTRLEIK
B19: M9-G08 (Fab, V domains shown)
VH: EVQLLESGGGLVQPGGSLRLSCAASGFTFSYYTMLWVRQAPGKGLEWVSSIYPSGGFTMYADSVKGRFTISRDNSKNTLYLQMNSLRAEDTAVYYCARVDTAMAMIDYWGQGTLVTVSS
VL: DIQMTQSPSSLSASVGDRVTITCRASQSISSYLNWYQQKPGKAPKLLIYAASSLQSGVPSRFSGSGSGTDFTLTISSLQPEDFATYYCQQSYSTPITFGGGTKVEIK
B20: M9-H03 (Fab, V domains shown)
VH: EVQLLESGGGLVQPGGSLRLSCAASGFTFSWYSMGWVRQAPGKGLEWVSYIVPSGGYTMYADSVKGRFTISRDNSKNTLYLQMNSLRAEDTAVYYCARDPGVSYYYYGMDVWGQGTTVTVSS
VL: QYELTQAPSVSVAPGQTASITCSGDKLGNRYTSWYQQKPGQSPVLVIFQDNKRPSGIPERFSGSNSGNTATLTISGTQAMDEADYYCQALDSNTYVFGTGTKVTVL
B21: M9-C08 (Fab, V domains shown)
VH: EVQLLESGGGLVQPGGSLRLSCAASGFTFSHYGMVWVRQAPGKGLEWVSYIVPSGGLTYYADSVKGRFTISRDNSKNTLYLQMNSLRAEDTAVYYCARVDYTGDGLGYWGQGTLVTVSS
VL: DIQMTQSPSSLSASVGDRVTITCRASQSISIYVNWYQQKPGKAPNLLIFAASSLQRGVPSRFSGSGSGADFTLTISSLQPEDFATYYCQQSFSTPLTFGGGTKVEIK
B22: M9-F08 (Fab, V domains shown)
VH: EVQLLESGGGLVQPGGSLRLSCAASGFTFSPYAMTWVRQAPGKGLEWVSVIYPSGGFTDYADSVKGRFTISRDNSKNTLYLQMNSLRAEDTAMYYCARASGSYLDAFDIWGQGTMVTVSS
VL: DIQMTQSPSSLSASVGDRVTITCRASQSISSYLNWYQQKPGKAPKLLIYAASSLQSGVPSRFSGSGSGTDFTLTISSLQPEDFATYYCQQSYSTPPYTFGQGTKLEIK
B23: M9-C10 (Fab, V domains shown)
VH: EVQLLESGGGLVQPGGSLRLSCAASGFTFSLYPMQWVRQAPGKGLEWVSSIGSSGGMTFYADSVKGRFTISRDNSKNTLYLQMNSLRAEDTAVYYCTREVGAAGFAFDIWGQGTMVTVSS
VL: DIQMTQSPSSLSASVGDRVTITCRASQGISSYLNWYQQKPGNAPNLLIYGASSLQSGVPSRFSGSGSGTDFTLTISSLQPEDFATYYCQESYSTLFTFGPGTTVEIK
B24: M11-A10 (Fab, V domains shown)
VH: EVQLLESGGGLVQPGGSLRLSCAASGFTFSNYWMMWVRQAPGKGLEWVSGIGSSGGFTSYADSVKGRFTISRDNSKNTLYLQMNSLRAEDTAVYYCAKGSYSDYGVFESWGQGTLVTVSS
VL: DIQMTQSPSSLSASVGDRVAITCRASQSIDTYLNWYQQKPGKAPKLLIYDASNLEIGVPSRFSGSGSGTDFTFIINSLQPEDVATYYCQHYLYAPYSFGQGTKLEIK

These binders were tested against T1, human plasma kallikrein (human, UniProt P03952 20-390; P03952 391-638) (assay: ELISA, biotinylated pKal signal over streptavidin background).
T1 construct: two disulfide-linked chains; NP_000883.2; also called pKal; hpKal
T1 sequence (P03952 20-390 limits assumed, chain 1 of 2): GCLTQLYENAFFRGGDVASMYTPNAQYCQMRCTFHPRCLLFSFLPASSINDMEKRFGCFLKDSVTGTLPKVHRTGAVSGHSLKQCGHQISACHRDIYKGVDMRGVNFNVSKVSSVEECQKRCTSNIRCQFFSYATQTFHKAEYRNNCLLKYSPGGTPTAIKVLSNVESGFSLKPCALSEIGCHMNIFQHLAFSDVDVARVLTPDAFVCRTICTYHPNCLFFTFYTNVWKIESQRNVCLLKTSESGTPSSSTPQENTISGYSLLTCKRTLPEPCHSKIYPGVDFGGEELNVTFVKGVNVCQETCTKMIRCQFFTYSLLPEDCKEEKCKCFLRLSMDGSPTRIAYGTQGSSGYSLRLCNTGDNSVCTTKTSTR
T1 sequence (P03952 391-638 limits assumed, chain 2 of 2): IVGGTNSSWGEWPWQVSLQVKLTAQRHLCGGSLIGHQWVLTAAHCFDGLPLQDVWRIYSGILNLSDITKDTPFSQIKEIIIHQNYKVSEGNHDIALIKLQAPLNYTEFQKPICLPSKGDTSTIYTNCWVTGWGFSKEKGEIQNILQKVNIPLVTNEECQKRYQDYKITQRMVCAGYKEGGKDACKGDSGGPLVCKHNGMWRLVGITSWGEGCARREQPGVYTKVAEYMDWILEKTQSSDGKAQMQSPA
For B1, the “ELISA (T/B)” value was 5.3. B2 was tested, and the “ELISA (T/B)” value was 7. For B3, the “ELISA (T/B)” value was 11.7. In the case of B4, the “ELISA (T/B)” value is reported as 6.4. B5 was tested, and the “ELISA (T/B)” value was 43.2. With B6 the “ELISA (T/B)” value was 20.8. B7 was tested, and the “ELISA (T/B)” value was 4.8. In the case of B8, the “ELISA (T/B)” value is reported as 5.5. For B9, the “ELISA (T/B)” value was 7.1. With B10 the “ELISA (T/B)” value was 32.8. With B11 the “ELISA (T/B)” value was 41.4. With B12 the “ELISA (T/B)” value was 35.9. With B13 the “ELISA (T/B)” value was 33.7. B14 was tested, and the “ELISA (T/B)” value was 18.8. With B15 the “ELISA (T/B)” value was 3.5. For B16, the “ELISA (T/B)” value was 14.1. B17 was tested, and the “ELISA (T/B)” value was 8.4. For B18, the “ELISA (T/B)” value was 16.1. For B19, the “ELISA (T/B)” value was 4.8. With B20 the “ELISA (T/B)” value was 4.4. B21 was tested, and the “ELISA (T/B)” value was 10.9. With B22 the “ELISA (T/B)” value was 10.9. In the case of B23, the “ELISA (T/B)” value is reported as 7.8. With B24 the “ELISA (T/B)” value was 25.
